Test [1] has as its target recombinant ED-B domain of fibronectin (UniProt P02751). Kind of test: 125I-labelled antibody on ED-B Sepharose column, bound against unbound radioactivity, before injection.
Test [2] has the same target. Kind of test: 125I-labelled antibody in mouse plasma 3 h after i.v. injection, ED-B Sepharose column.
For test [3] the target is unchanged. Kind of test: 125I-labelled antibody in mouse plasma 6 h after i.v. injection, ED-B Sepharose column.
Test [4] has the same target. Kind of test: 125I-labelled antibody in mouse plasma 24 h after i.v. injection, ED-B Sepharose column.
For test [5] the target is unchanged. In words: 125I-labelled antibody in mouse plasma 48 h after i.v. injection, ED-B Sepharose column.
The target is the same in test [6]. Kind of test: 125I-labelled antibody in mouse plasma 72 h after i.v. injection, ED-B Sepharose column.
Test [7] shares this target. In words: 125I-labelled antibody in mouse plasma 144 h after i.v. injection, ED-B Sepharose column.

scFv(L19), sequence (VH): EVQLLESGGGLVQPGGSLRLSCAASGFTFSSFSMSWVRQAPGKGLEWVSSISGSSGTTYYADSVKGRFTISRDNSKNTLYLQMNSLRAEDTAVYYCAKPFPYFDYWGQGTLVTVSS
scFv(L19), sequence (VL): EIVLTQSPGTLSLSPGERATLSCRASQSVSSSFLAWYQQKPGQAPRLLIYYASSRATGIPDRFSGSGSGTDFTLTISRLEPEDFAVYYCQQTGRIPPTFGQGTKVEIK
UniProt P02751, sequence (P02751 1266-1356 limits assumed): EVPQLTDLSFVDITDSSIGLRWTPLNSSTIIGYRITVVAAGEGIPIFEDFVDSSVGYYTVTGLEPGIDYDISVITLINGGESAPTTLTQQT

As for “L19 small immunoprotein (L19-SIP) (from UniProt P01854 319-426)”, the immunoreactivity (percentage bound to ED-B Sepharose) in test [1] is more than 90%.
Consider scFv(L19), for which the Immunoreactivity (I), % of the value before i.v. injection is 36% in test [2]; 32% in test [3]; 27% in test [4]; 14% in test [5]; 9% in test [6]; 4% in test [7]. In test [1], the immunoreactivity (percentage bound to ED-B Sepharose) is more than 90%.

These data come from patent US20060057146A1.
